4 substances from paper PMC6643034 can be followed below.

pKd: −log10 of the molar value.

Test [1] has as its target P1126 (Amblyomma cajennense). In words: BLI; OctetRed; evasin held on a nickel-coated biosensor by its C-terminal His tag; titration with chemokine from 600 to 0.4 nM; noninteracting reference protein; fit R2 ≥0.96, at least five data points. On the technique in general: BLI is a label-free optical method that tracks binding on a fibre tip over time.
Test [2] has as its target P1142 (Amblyomma cajennense). The test is described as above.
A further test has as its target P675 (Ixodes ricinus). Described as above.
The next test concerns the target P942 (Ixodes ricinus). The description is as above.
For test [3], the target named is CXC-motif chemokine ligand 10 (CXCL10) (human) (UniProt P02778).

Chain of CXCL11 (O14625 22-94): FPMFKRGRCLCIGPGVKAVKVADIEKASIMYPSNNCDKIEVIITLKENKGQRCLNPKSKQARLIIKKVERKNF

Take “CXCL11 (from UniProt O14625 22-94) (ligand)”: the pKd is below 6.52 in test [1], below 6.52 in test [2], above 7.70 in the test with P675 (Ixodes ricinus) and above 7.70 with P942 (Ixodes ricinus).

EVA3:S5 (from UniProt P0C8E8 70-86) came in with a neutralization of human CXCL10-induced migration of activated human CD8+ T-cells (Transwell, EC80 dose of CXCL10, EVA3:S5 0.015–1000 nM); mean IC50 of five biological replicates in test [3] of 3.11e-08 M. This substance also returned a neutralization of human CXCL8-induced granulocyte migration (Transwell, EC80 dose of CXCL8, EVA3:S5 0.05–200 nM); mean IC50 of four biological replicates with CXCL8 (human) of 3.23e-08 M.

The substance P1142 (natural protein) registered a neutralization of human CXCL10-induced migration of activated human CD8+ T-cells (Transwell, EC80 dose of CXCL10, P1142 0.015–150 nM); mean IC50 of five biological replicates in test [3] of 1.85e-09 M.

For the substance “CXC-motif chemokine ligand 10 (CXCL10) (from UniProt P02778 22-98)”, the pKd is above 8.00 in test [1], above 8.00 in test [2], below 7.00 with P675 (Ixodes ricinus) and below 7.00 with P942 (Ixodes ricinus). The target residence time in test [2] is above 10 min.

The term pKd denotes −log10 of the Kd, conventionally taken in molar units. Read a low pKd as a high Kd.
